Here are results for six sequences from the supplement of paper PMC10065799, “High-throughput profiling of sequence recognition by tyrosine kinases and SH2 domains using bacterial peptide display” (eLife, 2023).

One data set concerns the target Grb2 SH2 (UniProt P62993). Description: SH2 binding enrichment of the phosphorylated peptide, bacterial display (enrichment ratio); higher = better substrate or ligand; peptides without Tyr show the background.
A further data set addresses SHP2-C SH2. Described as above.
The target in the next data set is c-Src SH2. The description is as above.
The target of another data set is EPHB1 (UniProt P54762). Description: phosphorylation enrichment, bacterial display (enrichment ratio); higher = better substrate or ligand; peptides without Tyr show the background.
Sequence of EPHB1 (P54762 whole entry, looked up): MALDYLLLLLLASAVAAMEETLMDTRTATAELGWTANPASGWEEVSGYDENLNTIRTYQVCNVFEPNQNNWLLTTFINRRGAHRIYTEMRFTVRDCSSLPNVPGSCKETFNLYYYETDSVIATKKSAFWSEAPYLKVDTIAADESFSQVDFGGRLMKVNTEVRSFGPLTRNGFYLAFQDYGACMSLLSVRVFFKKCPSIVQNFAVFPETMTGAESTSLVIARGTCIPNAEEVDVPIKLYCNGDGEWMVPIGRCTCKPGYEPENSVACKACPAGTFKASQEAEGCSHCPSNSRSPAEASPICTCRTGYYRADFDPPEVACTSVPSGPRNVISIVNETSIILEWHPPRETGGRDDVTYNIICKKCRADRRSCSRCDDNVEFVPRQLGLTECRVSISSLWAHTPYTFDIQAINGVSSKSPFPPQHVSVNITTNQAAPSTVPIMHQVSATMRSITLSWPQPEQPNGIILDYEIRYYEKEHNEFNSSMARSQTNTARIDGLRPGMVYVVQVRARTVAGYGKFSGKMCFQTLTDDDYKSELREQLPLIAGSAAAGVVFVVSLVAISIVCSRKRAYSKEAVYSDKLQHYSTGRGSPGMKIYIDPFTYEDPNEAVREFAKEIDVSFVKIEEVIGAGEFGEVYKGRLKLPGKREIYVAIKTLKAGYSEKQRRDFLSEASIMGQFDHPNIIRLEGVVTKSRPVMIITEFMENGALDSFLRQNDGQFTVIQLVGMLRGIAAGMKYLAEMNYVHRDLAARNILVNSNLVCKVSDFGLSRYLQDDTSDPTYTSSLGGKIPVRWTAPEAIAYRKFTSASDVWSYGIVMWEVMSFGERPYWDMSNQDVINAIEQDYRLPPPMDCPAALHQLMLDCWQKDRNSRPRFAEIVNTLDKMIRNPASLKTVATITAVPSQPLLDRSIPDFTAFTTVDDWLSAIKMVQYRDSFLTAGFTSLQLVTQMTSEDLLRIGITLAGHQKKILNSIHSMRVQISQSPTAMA
The target in another data set is Fyn (UniProt P06241). The data set is described as above.
Sequence of Fyn (P06241 whole entry, looked up): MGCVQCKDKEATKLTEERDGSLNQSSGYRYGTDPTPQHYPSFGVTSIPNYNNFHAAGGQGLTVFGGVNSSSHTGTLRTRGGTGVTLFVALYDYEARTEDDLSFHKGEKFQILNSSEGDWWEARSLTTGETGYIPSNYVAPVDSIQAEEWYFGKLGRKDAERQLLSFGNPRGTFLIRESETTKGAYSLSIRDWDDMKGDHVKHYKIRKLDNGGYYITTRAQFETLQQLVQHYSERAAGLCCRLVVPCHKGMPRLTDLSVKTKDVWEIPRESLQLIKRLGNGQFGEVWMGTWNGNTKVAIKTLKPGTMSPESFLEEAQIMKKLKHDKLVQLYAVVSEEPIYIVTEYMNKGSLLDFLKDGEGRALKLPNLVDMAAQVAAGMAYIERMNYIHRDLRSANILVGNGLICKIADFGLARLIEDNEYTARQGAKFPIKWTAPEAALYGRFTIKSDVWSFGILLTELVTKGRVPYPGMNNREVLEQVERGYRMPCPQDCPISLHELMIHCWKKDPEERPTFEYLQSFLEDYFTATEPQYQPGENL
The target of another data set is FGFR1 (UniProt P11362). The description is as above.
A further data set relates to c-Abl (mouse). The description is as above.
A further data set deals with Jak2 (UniProt O60674). The data set is described as above.
The target in another data set is Fes (UniProt P07332). The description is as above.
Sequence of Fes (P07332 whole entry, looked up): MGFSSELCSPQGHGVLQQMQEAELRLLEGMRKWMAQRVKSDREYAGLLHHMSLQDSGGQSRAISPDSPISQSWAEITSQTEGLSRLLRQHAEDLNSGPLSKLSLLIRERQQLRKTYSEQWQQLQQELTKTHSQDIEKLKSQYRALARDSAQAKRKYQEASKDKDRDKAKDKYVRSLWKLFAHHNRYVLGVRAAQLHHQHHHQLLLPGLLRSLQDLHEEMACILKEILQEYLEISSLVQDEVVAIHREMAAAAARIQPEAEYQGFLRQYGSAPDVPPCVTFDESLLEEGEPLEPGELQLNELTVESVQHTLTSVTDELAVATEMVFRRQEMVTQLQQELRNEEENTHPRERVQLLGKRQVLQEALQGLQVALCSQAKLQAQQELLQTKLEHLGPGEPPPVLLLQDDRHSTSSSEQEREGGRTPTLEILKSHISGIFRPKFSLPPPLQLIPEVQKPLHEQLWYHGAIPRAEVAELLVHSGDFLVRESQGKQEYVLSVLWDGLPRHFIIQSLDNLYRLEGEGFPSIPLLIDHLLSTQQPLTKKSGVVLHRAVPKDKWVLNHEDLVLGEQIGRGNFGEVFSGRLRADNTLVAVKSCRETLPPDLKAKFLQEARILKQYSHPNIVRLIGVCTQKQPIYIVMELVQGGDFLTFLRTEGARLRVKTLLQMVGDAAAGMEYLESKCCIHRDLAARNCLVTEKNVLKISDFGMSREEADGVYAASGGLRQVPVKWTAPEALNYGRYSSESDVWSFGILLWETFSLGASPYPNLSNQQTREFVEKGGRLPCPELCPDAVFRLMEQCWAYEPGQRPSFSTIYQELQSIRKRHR
In the next data set the test system is Fer (mouse). Described as above.
The target in another data set is EPHB2 (UniProt P29323). The description is as above.
The next data set addresses Hck (UniProt P08631). Described as above.
The next data set addresses MERTK (UniProt Q12866). Described as above.
A further data set concerns the target FGFR3 (UniProt P22607). The description is as above.
A further data set has as its system c-Src. The data set is described as above.
A further data set relates to AncSZ. Described as above.
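For SH2 binding enrichment of the phosphorylated peptide, bacterial display in this document: peptide library displayed on the E. coli surface as eCPX fusions, selected cells deep-sequenced, score is each peptide's frequency after selection divided by its frequency in the input.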
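For phosphorylation enrichment, bacterial display in this document: 11-residue human phosphosite peptides and single-mutation variants displayed on the E. coli surface, counted by deep sequencing, each peptide's frequency after selection divided by its frequency in the unselected input library; frequency after pTyr selection over input frequency; kinase dosed for 20-30% of maximal phosphorylation in three min.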

Sequence of MERTK (Q12866 whole entry, looked up): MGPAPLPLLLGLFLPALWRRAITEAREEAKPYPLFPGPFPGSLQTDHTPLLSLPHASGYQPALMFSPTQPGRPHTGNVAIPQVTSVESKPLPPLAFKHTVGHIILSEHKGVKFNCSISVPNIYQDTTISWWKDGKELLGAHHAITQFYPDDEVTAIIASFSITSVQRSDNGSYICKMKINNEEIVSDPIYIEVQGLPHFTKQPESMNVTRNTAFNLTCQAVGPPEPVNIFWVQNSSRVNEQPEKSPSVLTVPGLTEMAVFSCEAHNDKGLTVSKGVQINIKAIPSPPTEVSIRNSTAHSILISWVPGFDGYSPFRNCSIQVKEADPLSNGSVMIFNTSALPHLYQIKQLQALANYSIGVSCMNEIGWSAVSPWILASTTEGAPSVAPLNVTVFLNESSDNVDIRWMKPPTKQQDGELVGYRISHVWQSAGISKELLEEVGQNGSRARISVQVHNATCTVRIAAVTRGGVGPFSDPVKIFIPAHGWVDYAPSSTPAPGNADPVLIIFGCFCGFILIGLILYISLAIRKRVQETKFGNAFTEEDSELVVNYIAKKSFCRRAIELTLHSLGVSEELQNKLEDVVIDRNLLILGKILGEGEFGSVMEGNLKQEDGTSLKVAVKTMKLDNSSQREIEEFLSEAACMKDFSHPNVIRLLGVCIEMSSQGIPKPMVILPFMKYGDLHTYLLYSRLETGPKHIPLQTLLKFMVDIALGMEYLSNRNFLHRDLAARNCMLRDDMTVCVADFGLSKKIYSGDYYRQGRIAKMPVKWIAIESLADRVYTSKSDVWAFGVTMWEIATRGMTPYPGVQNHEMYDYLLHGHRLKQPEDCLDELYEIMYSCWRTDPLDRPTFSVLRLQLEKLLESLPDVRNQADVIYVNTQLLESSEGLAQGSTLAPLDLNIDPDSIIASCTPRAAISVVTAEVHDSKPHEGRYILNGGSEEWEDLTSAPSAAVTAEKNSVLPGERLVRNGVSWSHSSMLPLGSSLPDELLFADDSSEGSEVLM
Sequence of FGFR3 (P22607 whole entry, looked up): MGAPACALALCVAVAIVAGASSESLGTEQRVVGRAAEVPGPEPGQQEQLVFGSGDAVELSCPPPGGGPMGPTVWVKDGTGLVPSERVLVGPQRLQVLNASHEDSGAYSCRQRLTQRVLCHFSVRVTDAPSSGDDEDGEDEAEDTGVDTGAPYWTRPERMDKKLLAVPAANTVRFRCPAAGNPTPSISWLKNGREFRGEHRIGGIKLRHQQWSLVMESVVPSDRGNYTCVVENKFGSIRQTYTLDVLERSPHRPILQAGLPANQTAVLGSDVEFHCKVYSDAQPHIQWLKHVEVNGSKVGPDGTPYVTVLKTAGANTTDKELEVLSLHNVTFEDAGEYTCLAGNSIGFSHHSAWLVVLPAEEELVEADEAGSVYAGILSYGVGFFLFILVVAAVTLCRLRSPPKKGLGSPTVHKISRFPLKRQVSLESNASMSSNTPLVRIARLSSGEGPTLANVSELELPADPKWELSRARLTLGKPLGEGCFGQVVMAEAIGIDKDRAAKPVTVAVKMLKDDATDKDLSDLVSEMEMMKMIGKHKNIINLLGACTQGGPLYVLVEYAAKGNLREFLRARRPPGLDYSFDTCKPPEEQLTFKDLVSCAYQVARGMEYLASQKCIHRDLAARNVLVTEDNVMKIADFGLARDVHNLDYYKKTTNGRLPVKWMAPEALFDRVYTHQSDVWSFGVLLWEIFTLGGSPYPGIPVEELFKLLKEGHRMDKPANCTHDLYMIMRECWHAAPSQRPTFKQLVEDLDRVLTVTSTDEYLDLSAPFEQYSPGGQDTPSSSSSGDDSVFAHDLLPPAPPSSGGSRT
Sequence of Hck (P08631 whole entry, looked up): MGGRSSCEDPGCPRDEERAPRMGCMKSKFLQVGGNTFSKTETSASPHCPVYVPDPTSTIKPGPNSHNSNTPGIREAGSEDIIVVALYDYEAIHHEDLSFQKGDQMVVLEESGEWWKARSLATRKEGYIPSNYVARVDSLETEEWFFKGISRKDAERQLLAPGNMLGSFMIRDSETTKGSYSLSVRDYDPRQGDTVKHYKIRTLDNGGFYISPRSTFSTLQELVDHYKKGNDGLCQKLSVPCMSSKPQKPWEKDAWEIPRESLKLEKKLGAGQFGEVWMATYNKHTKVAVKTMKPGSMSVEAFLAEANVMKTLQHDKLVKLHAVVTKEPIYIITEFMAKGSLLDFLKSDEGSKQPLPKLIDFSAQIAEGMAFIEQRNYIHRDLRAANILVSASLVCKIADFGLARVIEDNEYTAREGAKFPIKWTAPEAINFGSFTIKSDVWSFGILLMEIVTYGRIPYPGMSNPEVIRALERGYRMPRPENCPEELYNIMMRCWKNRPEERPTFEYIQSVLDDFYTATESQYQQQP
Sequence of Grb2 SH2 (P62993 whole entry, looked up): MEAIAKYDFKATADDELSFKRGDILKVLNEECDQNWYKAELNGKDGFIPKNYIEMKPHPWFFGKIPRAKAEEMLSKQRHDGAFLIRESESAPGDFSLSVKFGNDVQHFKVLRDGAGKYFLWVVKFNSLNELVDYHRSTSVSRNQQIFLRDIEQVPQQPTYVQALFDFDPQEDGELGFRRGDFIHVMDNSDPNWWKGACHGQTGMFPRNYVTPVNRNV

Take PLAVPYLDKPP [JMJD7_Y31]: the SH2 binding enrichment came out at 0.867 with Grb2 SH2, 1.1 in the data set with SHP2-C SH2 and 0.398 in the data set with c-Src SH2. Further, the phosphorylation enrichment with EPHB1 was 0.355; with Fyn, 0.46; in the data set with FGFR1, 0.504; in the data set on c-Abl (mouse), 0.658; in the data set with Jak2 it was 0.742; in the data set with Fes, 1.06. Besides, the phosphorylation enrichment was determined as 0.614 with Fer (mouse); 0.608 with EPHB2; 0.711 with Hck; 0.614 with MERTK; 0.769 with FGFR3; 0.549 in the data set on c-Src. Besides, the phosphorylation enrichment in the data set on AncSZ came to 0.825.

Regarding RVKPIYFHTQG [AR_Y916_K911R], the SH2 binding enrichment stood at 2.11 in the data set with Grb2 SH2, 1.67 in the data set with SHP2-C SH2 and 1.53 with c-Src SH2. The phosphorylation enrichment was determined as 0.644 with EPHB1; 0.642 in the data set with Fyn; 0.706 with FGFR1; 1.04 in the data set with c-Abl (mouse); 1.6 in the data set with Jak2; 1.69 with Fes. The phosphorylation enrichment with Fer (mouse) came out at 0.764; with EPHB2, 0.804; with Hck, 0.622; in the data set with MERTK, 0.763; in the data set with FGFR3, 0.765; in the data set with c-Src it was 0.952. The phosphorylation enrichment in the data set on AncSZ stood at 1.16.

For DESEDCRDTVV [CNNM3_Y456_Y456C], the SH2 binding enrichment with Grb2 SH2 was determined as 0.97; with SHP2-C SH2 it was 0.887; in the data set with c-Src SH2, 0.672. The phosphorylation enrichment with EPHB1 came to 0.788; with Fyn, 0.528; with FGFR1, 0.589; in the data set on c-Abl (mouse), 0.777; with Jak2 it was 1.03; in the data set with Fes, 1.11. In addition, the phosphorylation enrichment was determined as 0.515 in the data set on Fer (mouse); 0.597 with EPHB2; 0.587 with Hck; 0.518 with MERTK; 0.723 with FGFR3; 0.474 with c-Src. Also, in the data set on AncSZ, the phosphorylation enrichment turned out to be 1.22.

For the sequence HNLDFYKMTTN [FGFR3_Y648_K650M_YF], the figures for the SH2 binding enrichment with Grb2 SH2, with SHP2-C SH2 and with c-Src SH2 were 0.62, 0.981 and 0.474, respectively. For the same sequence, the phosphorylation enrichment in the data set with EPHB1 turned out to be 0.954; with Fyn, 1.66; with FGFR1 it was 1.45; with c-Abl (mouse), 0.954; in the data set with Jak2 it was 1.25; with Fes, 1.74. The phosphorylation enrichment in the data set on Fer (mouse) is 0.728; with EPHB2, 1.1; with Hck, 1.67; with MERTK it was 0.783; in the data set with FGFR3, 1.88; in the data set on c-Src it was 0.364. Moreover, in the data set with AncSZ, the phosphorylation enrichment came out at 2.03.

As to PLDGEYFTLPI [TP53_Y327_Q331P], the results for the SH2 binding enrichment with Grb2 SH2, with SHP2-C SH2 and with c-Src SH2 were 0.717, 0.61 and 0.478, respectively. Also, the phosphorylation enrichment with EPHB1 amounted to 16.6; with Fyn, 9.28; in the data set with FGFR1, 36.5; in the data set on c-Abl (mouse), 25; with Jak2, 12.1; in the data set with Fes, 2.87. Moreover, the phosphorylation enrichment in the data set on Fer (mouse) was determined as 1.66; with EPHB2 it was 19.1; with Hck, 15.7; with MERTK, 3.81; with FGFR3, 32.2; in the data set on c-Src, 9.02. Moreover, in the data set with AncSZ, the phosphorylation enrichment was determined as 12.6.

Regarding RVAFQYGVTDL [MYBPC3_Y340_I336V], the SH2 binding enrichment in the data set with Grb2 SH2 amounted to 0.697; with SHP2-C SH2, 0.432; with c-Src SH2, 0.545. The phosphorylation enrichment in the data set with EPHB1 worked out at 0.461; with Fyn it was 0.49; with FGFR1 it was 0.456; in the data set with c-Abl (mouse), 0.764; with Jak2, 1.08; with Fes, 1.27. Further, the phosphorylation enrichment in the data set on Fer (mouse) worked out at 0.576; in the data set with EPHB2 it was 0.827; in the data set with Hck, 0.599; in the data set with MERTK, 0.471; with FGFR3, 0.842; with c-Src it was 0.493. In addition, the phosphorylation enrichment in the data set on AncSZ was 1.16.
